In publication PMC6113214, “Outer membrane lipoprotein RlpA is a novel periplasmic interaction partner of the cell division protein FtsK in Escherichia coli” (Scientific Reports, 2018):

Molecular target: T1, FtsZ (E. coli, UniProt P0A9A6 1-383)
T1 construct: FtsZ, tubulin homologue of the Z-ring; the species is told only of the protein in general; also called purified FtsZ
T1 sequence (looked up): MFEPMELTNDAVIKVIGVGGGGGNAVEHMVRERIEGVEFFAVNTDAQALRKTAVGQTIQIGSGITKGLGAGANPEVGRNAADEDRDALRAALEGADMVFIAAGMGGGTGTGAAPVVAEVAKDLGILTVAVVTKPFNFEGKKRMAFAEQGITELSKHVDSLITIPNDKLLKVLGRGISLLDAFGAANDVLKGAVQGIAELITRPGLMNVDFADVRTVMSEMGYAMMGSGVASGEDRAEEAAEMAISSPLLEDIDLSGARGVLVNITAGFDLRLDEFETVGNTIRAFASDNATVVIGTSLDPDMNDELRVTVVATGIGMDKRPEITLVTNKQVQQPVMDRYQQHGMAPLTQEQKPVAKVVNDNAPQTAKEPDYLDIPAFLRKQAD
Experiment: pull-down; His10-FtsKN bound to 100 uL Ni2+ IMAC resin (bait); 320 ug purified FLAG-RlpA or 250 ug purified FtsZ (prey); 4 C overnight; three washes in 20 mM Tris-HCl pH 7.0, 100 mM NaCl, 25 mM imidazole, 0.05% LDAO; elution with 1 M imidazole; Western blot; empty resin as control
Conditions: both partners purified

B1: His10-FtsKN(220), N-terminal domain of the cell division protein FtsK (amino acids 1-220) (domain or fragment, E. coli, UniProt P46889 1-220, looked up)
chain: MSQEYIEDKEVTLTKLSSGRRLLEALLILIVLFAVWLMAALLSFNPSDPSWSQTAWHEPIHNLGGMPGAWLADTLFFIFGVMAYTIPVIIVGGCWFAWRHQSSDEYIDYFAVSLRIIGVLALILTSCGLAAINADDIWYFASGGVIGSLLSTTLQPLLHSSGGTIALLCVWAAGLTLFTGWSWVTIAEKLGGWILNILTFASNRTRRDDTWVDEDEYEDD
notes: FtsK of E. coli, N-terminal membrane anchor domain, amino acids 1-220 of the 1329 amino acid protein; also called WT FtsKN; not shown: His10, N-terminal, kept
B1: binds.
